B1: HDV Ribozyme (parent)
chain: GGCCGGCAUGGUCCCAGCCUCCUCGCUGGCGCCGGCUGGGCAACAUUCCGAGGGGACCGUCCCCUCGGUAAUGGCGAAUGGGACCCA

Variants of: B1
Assay: self-cleavage, relative activity (ratio to wild type); higher = more cleavage; co-transcriptional

| Variant | self-cleavage |
| --- | --- |
| GGCCGGCCUGGUCCCAGCCUCCUCGCUGGCGCCGGCUGGGCAACAUUCCGAGGGGACCGUCCCCUCGGUAAUGGCGAAUAGGACCCA [A8C G80A] | 0.326 |
| GGCCGGCAUGGACCCAGCCUCCUCGCUGGCGCCGGCUGGGCAACAUUCCGAGGGCACCGUCCCCUCGGUAAUGGCGAAUGGGACCCA [U12A G55C] | 0.201 |
| GGCCGGCAUGGUCCCAGCCUCCUCGCUGGCGCCGGCUGGGCAACAUUCCGAGGGGACCAUCCCCUCGUUAAUGGCGAAUGGGACCCA [G59A G68U] | 0.92 |
| GGCCGGCAUGGUCCCAGCCUCCUCGCUGGCGCCGGCUGUGCAACAUUCCGAGGGGACCGUCCCCUCGGUAACGGCGAAUGGGACCCA [G39U U72C] | 0.0573 |
| GGCCGGCAUGGUCCCAGCCUCCUCGCUGGCGCCGGCUGGGCAACAUUCCGAGGUGACCGUCCCCUCGGUAAUGACGAAUGGGACCCA [G54U G74A] | 0.601 |
| GGCCGGCAUGGUCCCAGCCUCCUCGCUGGCGCCGGCUGGGCAACAUUCCGAGGGUACCAUCCCCUCGGUAAUGGCGAAUGGGACCCA [G55U G59A] | 1.14 |
| GGCCGGCAUGGUCCCAACCUCCUCGCUGGCGCGGGCUGGGCAACAUUCCGAGGGGACCGUCCCCUCGGUAAUGGCGAAUGGGACCCA [G17A C33G] | 0.0369 |
| GGCCGGCAUGGUCCCAGCCACCUCGCUGGCGCCGGCUGGGCAACAUUCCGAGGGGACCGUCCCCUCGGUAAUGGCGAAUGGGACCCU [U20A A87U] | 0.0282 |
| GGCCGGCCUGGUCCCAGCCUCCUCGCUGGCGCCGGCUGGGCAACAUUCCGAGGGGACCGUCCCCUCGGUAUUGGCGAAUGGGACCCA [A8C A71U] | 0.427 |
| GGCCGGCAUGGUCCCAGCCUCCUCGCUGGCCCCGGCUGGGCAACAUUCCGAGUGGACCGUCCCCUCGGUAAUGGCGAAUGGGACCCA [G31C G53U] | 0.496 |
| GGCCGGCAUGGUCCCAGCCUCCUCGCUGGCGCCGGCUGGUCAACAAUCCGAGGGGACCGUCCCCUCGGUAAUGGCGAAUGGGACCCA [G40U U46A] | 0.364 |
| GGCCGGCAUCGUCCCAGCCUCCUCGCUGGCGCCGGCUGGGCAACAUUCCGAGGGGAACGUCCCCUCGGUAAUGGCGAAUGGGACCCA [G10C C57A] | 1.06 |
| GGCCGGCAUGGUCCCAGCUUCCUCGCUGGCGCCGGCUGGGCAACAUUCCGAGGGGACCGUCCCCUCGGUAAUGCCGAAUGGGACCCA [C19U G74C] | 0.126 |
| GUCCGGCAUGGUCCCAGCCUCCUCGCUGGCGCCGGCUGGGCAACAUUCCGAGGGGACCGUCCCCUCGGUUAUGGCGAAUGGGACCCA [G2U A70U] | 0.0548 |
| GGCCUGCAUGGUCCCAGCCUCCUCGCUGGCGCCGGCUGGGCAACAUUCCGAGGGGACCGGCCCCUCGGUAAUGGCGAAUGGGACCCA [G5U U60G] | 0.151 |
| GGCCGGCAUGGUCCCAGCCUCCUCGCUGGCGCCGGCUGGGCAACAUUCCUAGGGGACCGUCCCCUCGGUAAUGGCGAAUGGGACCUA [G50U C86U] | 0.751 |
| GGCCGGCAUGGUCACAGCCUCCUCGCUGGCGCCGGCUGGGCAACAUACCGAGGGGACCGUCCCCUCGGUAAUGGCGAAUGGGACCCA [C14A U47A] | 0.639 |
| GGCCGGGAGGGUCCCAGCCUCCUCGCUGGCGCCGGCUGGGCAACAUUCCGAGGGGACCGUCCCCUCGGUAAUGGCGAAUGGGACCCA [C7G U9G] | 0.831 |
| GGCCGGCAUGGUCCCAGCCUCCACGCUGGCGCCGGCUCGGCAACAUUCCGAGGGGACCGUCCCCUCGGUAAUGGCGAAUGGGACCCA [U23A G38C] | 0.192 |
| GGCCGGCAUGGUCCCAGCCUCAUCGCUGGCGCCGGCUGGGCAACAUUCCGAGGGGACCGUCCCCUUGGUAAUGGCGAAUGGGACCCA [C22A C66U] | 0.302 |
| GGCCGCCAUGGUCCCAGCCUCCUCGCUGGCGCCGGCUGGGCAACAUUCAGAGGGGACCGUCCCCUCGGUAAUGGCGAAUGGGACCCA [G6C C49A] | 0.262 |
| GGCCGGCACGGUCCCAGCCUUCUCGCUGGCGCCGGCUGGGCAACAUUCCGAGGGGACCGUCCCCUCGGUAAUGGCGAAUGGGACCCA [U9C C21U] | 0.214 |

| Variant | self-cleavage |
| --- | --- |
| GGCCGGCAUGGUCCUAGCCUCCUCGCUGGCGCCGGCUGGGCAACAUUCCGAGGGGCCCGUCCCCUCGGUAAUGGCGAAUGGGACCCA [C15U A56C] | 1.02 |
| GGCCGGCAUGGUCCCAGCCUCCUCGCUGGCGCCGGCUGGGCAACAUUCCGAGGGGACCGUCCCCUCGGUAAUGGCGUUUGGGACCCA [A77U A78U] | 0.259 |
| GGCCGGCAUGGUCCCAGCCUCCUCGCUAGCGCCGGCUGGGCAACAUUCCGAGGGGACCGUCCCCUCGGUAAUGGCAAAUGGGACCCA [G28A G76A] | 0.0563 |
| GGCCGGCAUGGUCCCAGCCUCCACGCUGGCGCCGGCUGGGCAACAGUCCGAGGGGACCGUCCCCUCGGUAAUGGCGAAUGGGACCCA [U23A U46G] | 1.06 |
| GGCCGGCAUGGUCCCAGCCUCCUCGCUGGCGCCGGCUGGGCAACUUUCCGCGGGGACCGUCCCCUCGGUAAUGGCGAAUGGGACCCA [A45U A51C] | 0.796 |
| GGCCGGCAUGGUCCCAGCCUCCUCGCUGGCGCCGGCUGGGCAACAUUCCGAGGGGAGCGUCCCCUCGGUUAUGGCGAAUGGGACCCA [C57G A70U] | 0.96 |
| GGCCGGCAUGAUCCCAGCCUCCUCGCUGGCGCCGGCUGGGCAACAUUCCGAGGGGACCGUCCCCUCGAUAAUGGCGAAUGGGACCCA [G11A G68A] | 0.372 |
| GGCCGGCAUGGUCCCACCCUCCUCGCUGGCGCCGGCUGGGCAACAUUCCGAGGGGACCGUCCCCUCGGUGAUGGCGAAUGGGACCCA [G17C A70G] | 0.346 |
| GGCCGGCAUGGUCCCAGCCUCCUCACUGGCGCCGGCUGGGCAACAUUCCGAGGGGACCGUGCCCUCGGUAAUGGCGAAUGGGACCCA [G25A C61G] | 0.185 |
| GGCCGGCAUGGUCCCAGCCUCCUCGCUGGCGUCGGCUGGGCAACAUUCCGAGGGGACCUUCCCCUCGGUAAUGGCGAAUGGGACCCA [C32U G59U] | 0.795 |
| GGCCGGCAUGGUCCCAGCCUCCUCGCUGGCGCCGGCUGGGCAACAUUCCGAGGUGCCCGUCCCCUCGGUAAUGGCGAAUGGGACCCA [G54U A56C] | 0.861 |
| GGCCGGCAUGGUCCCAGCCUCCUCGCUGGCGCCGGCUGGGCAACAAUCCGAGGGGACCGUCCCCUCGGUGAUGGCGAAUGGGACCCA [U46A A70G] | 1.01 |
| GGACGGCAUGAUCCCAGCCUCCUCGCUGGCGCCGGCUGGGCAACAUUCCGAGGGGACCGUCCCCUCGGUAAUGGCGAAUGGGACCCA [C3A G11A] | 0.236 |
| GGCCGGCAUGGUCCCAGCCUCCUCGCUGGCGCCGGUUGGGCAACAUUUCGAGGGGACCGUCCCCUCGGUAAUGGCGAAUGGGACCCA [C36U C48U] | 0.746 |
| GGCCGGCAUGGUCCCAGCCUCCUCGCUGGCGCCGGCUGGGCAACAUUCCGAGGGGACCGUCCCCACGGUAAUGCCGAAUGGGACCCA [U65A G74C] | 0.225 |
| GGCCGGCAUGGUCCGAGCCUCCUCGCUGGCGCCGGCUGGGCAACAUGCCGAGGGGACCGUCCCCUCGGUAAUGGCGAAUGGGACCCA [C15G U47G] | 0.665 |
| GCCCGGCAUGGUCCCAGCCUCCUCGCUGGCGCCGGCUGGGCAACAUUCCGAGGGGACCGUCCCCUCGGUAAUGGCGAUUGGGACCCA [G2C A78U] | 0.132 |
| GGCCGGCAUGGUCCCAGCCUCCUCGCUGGCGCCGGCUGGGCAACAUUCAGAGGGGACCGUCCCCUCGGUAAUGGCGAAUGGGACCUA [C49A C86U] | 0.795 |
| GGCCGGCAUGGUCCCAGCCUCCUCGCUGGCGCCGGCUGGGCAACAUUCCGAGGGGACCGUCCCAUCGGUAAUGGCGACUGGGACCCA [C64A A78C] | 0.242 |
| GGCCGGUAUGGUCCCAGCCUCCUCGCUGGCGCCGGCUGGGCAACAUUCCGAGGGGACCGUCCCCUCGGUAAUGGCGAAUGGGACCCA [C7U] | 0.86 |
| GGCCGGCAUGGUCCCAGUCUCCUCGCUGGCGACGGCUGGGCAACAUUCCGAGGGGACCGUCCCCUCGGUAAUGGCGAAUGGGACCCA [C18U C32A] | 0.166 |
| GGCCGGCAUGGUCCCAGCCUCCUCGCUGGCGCCGGCUGGGCAACAUUCCGAGGGGACCGUCCCCUCGGUAAGGGCGAAUGAGACCCA [U72G G81A] | 0.302 |

| Variant | self-cleavage |
| --- | --- |
| GGGCGGCAUGGUCCCAGCCUCCUCGCUGGCGCCGGCUGGGCAACAUUCCGAGGGGACCGUCCCCUCGGUAAUGGGGAAUGGGACCCA [C3G C75G] | 0.0496 |
| GGCUGGCAUGGUCCCAGCCUCCUCGCUGGCGCCGGCUGGGCAACAUUCCGAGGGGACCGUCCCCUCGGUAAUGGCGAUUGGGACCCA [C4U A78U] | 0.155 |
| GGCCGGCAUGGUCCCAGCCUCCUCGCUGGCGCCGGCUGGGCAACAUUCCGAGGGGACCGUCCCCUCGGUGAUGGCGAAUGGGACCCA [A70G] | 0.969 |
| GGCCGGCAUGGUCCCAGCCUCCUCGCUGGCGCCGGCUGGGCAACAUUCCGAGGGGACCGCCCCCUCGGUAAUGGCGAACGGGACCCA [U60C U79C] | 0.326 |
| GGCCGGCAUGGUCCCAGCCUCCUCGCUGGCGCCGGCUGGGCAACAUUCCGAGGGGACCGUCCCCUCGGUAAUAUCGAAUGGGACCCA [G73A G74U] | 0.174 |
| GGCCGGCAUGGACCCAGCCUCCUCGCUGGCGCUGGCUGGGCAACAUUCCGAGGGGACCGUCCCCUCGGUAAUGGCGAAUGGGACCCA [U12A C33U] | 0.44 |
| GGCCGGCAUGGUCCCAGCCUCCUCGCUGCCGCCGGCUGGGCAACAUUCGGAGGGGACCGUCCCCUCGGUAAUGGCGAAUGGGACCCA [G29C C49G] | 0 |
| GGCCGGCAUGGUCCCAGCCUCCUCGCUGCCGCCGGCUGGGCAACAUUCCGAGGGGACCGUCCCCUCCGUAAUGGCGAAUGGGACCCA [G29C G67C] | 0.104 |
| GGCCGGCAUGGUCCCAGCCCCCUCGCUGGCGCCGGCUGGGAAACAUUCCGAGGGGACCGUCCCCUCGGUAAUGGCGAAUGGGACCCA [U20C C41A] | 0.156 |
| GGCCGGCAUGGUCCCAGCCUCCUCGCUGGCGACGGCUGGGCAACAUGCCGAGGGGACCGUCCCCUCGGUAAUGGCGAAUGGGACCCA [C32A U47G] | 0.246 |
| GGCCGGCAUGGUCCCAGCCUCCUCGCGGGCGCCGGCUGGGCAACAUUCCGAGGUGACCGUCCCCUCGGUAAUGGCGAAUGGGACCCA [U27G G54U] | 0.997 |
| GGCCGGCAUGGUCCCAGCCUCCUCGCUGGCGCCGGCUAGUCAACAUUCCGAGGGGACCGUCCCCUCGGUAAUGGCGAAUGGGACCCA [G38A G40U] | 0.149 |
| GGCCGGCAUGGUCCCAGCCUCCUCGCUGGCGCCGGCUGGGCAACAUUCCGAGGGGACCGUACCCUCGGUAAUGGCGAAUCGGACCCA [C61A G80C] | 0.201 |
| GGCCGGUAUGGUCCCAGCCUCCUCGCUGCCGCCGGCUGGGCAACAUUCCGAGGGGACCGUCCCCUCGGUAAUGGCGAAUGGGACCCA [C7U G29C] | 0.185 |
| GGCCGGCAUGGUCCCAGCCUCCUCGCUGGGGCCGGCUGGGCAACAUUCCGAGGGGACCGUCCCUUCGGUAAUGGCGAAUGGGACCCA [C30G C64U] | 0.126 |
| GGCCGGCAUGGGCCCAGCCUCCUCGCUGGCGCCGGCUGGGCAACAUUCCGAGGGGACCGUCCCCUCGGUAGUGGCGAAUGGGACCCA [U12G A71G] | 0.594 |
| GGCCGGCAUGGUCCCAGCCUCCUCGCUGGCGCCGGCUGGGCAACAUUCCGAGGGGACCCUCCCCUCGGUAAUGGGGAAUGGGACCCA [G59C C75G] | 0.189 |
| GGCCGGCAUGGUCCCAGCCUCCUCGCUGGCGCCGGCUGGGCAACAUUCCGUGGCGACCGUCCCCUCGGUAAUGGCGAAUGGGACCCA [A51U G54C] | 0.982 |
| GCCCGGCAUGGUCCCAGCCUCCUCGCUGGCGCCGGCUGGGCAACAUUCCGAGGGGACCGUCCCCUCGGUAAUGGCGAAUUGGACCCA [G2C G80U] | 0.0392 |
| GGCCGGCAUGGUCCCAACCUCCUCGCUGGCGCCGGCUGGGGAACAUUCCGAGGGGACCGUCCCCUCGGUAAUGGCGAAUGGGACCCA [G17A C41G] | 0.0997 |

From the RNAGym collection of RNA variant scans (doi:10.7554/elife.80360)
